Data taken from patent publication US20210388087A1 (Chugai, published 2021).

Columns and labels:
[1] = molecular target: T1, Human CD137 ECD (human); test: SPR, vs parent H183/L072
T1 construct: also called 4-1BB

[2] = molecular target: human CD137 on HDLM-2 cells (human, UniProt Q07011 24-255); test: cell-based or functional assay
Sequence of human CD137 on HDLM-2 cells (Q07011 24-255): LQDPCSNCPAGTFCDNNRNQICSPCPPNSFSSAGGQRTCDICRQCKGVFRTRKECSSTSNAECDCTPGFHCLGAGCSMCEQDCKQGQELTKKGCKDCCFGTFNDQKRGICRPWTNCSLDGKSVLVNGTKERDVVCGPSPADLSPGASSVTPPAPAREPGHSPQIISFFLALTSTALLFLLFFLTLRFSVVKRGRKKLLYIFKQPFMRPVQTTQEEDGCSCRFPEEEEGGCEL

T1 sequence (chain, as listed by the source limits assumed): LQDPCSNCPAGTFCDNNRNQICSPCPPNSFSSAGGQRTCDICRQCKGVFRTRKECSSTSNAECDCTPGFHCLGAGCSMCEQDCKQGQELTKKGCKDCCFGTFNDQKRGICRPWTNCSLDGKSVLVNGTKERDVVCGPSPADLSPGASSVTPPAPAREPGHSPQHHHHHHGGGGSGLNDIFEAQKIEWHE

Row | Binder | fold change of affinity [1] | Agonistic activity compared to B, antibody 6 ug/mL [2] | Agonistic activity compared to B, antibody 30 ug/mL [2] | Agonistic activity compared to Ctrl, antibody 6 ug/mL [2] | Agonistic activity compared to Ctrl, antibody 30 ug/mL [2] | hIL-6 (pg/mL), antibody 6 ug/mL [2] | hIL-6 (pg/mL), antibody 30 ug/mL [2]
1 | dBBDu183H Y97F / dBBDu072L (antibody, name in Kabat numbering, V domains shown, as m1, one VH change) VH: QVQLVESGGGLVQPGRSLRLSCAASGFTFSNAWMHWVRQAPGKGLEWVAQIKDKGNAYAAYYAPSVKGRFTISRDDSKNSIYLQMNSLKTEDTAVYYCHYVHFASASTVLPAFGVDAWGQGTTVTVSS VL: DIVMTQSPLSLPVTPGEPASISCQASQELVHMNRNTYLHWYQQKPGQAPRLLIYKVSNRFPGVPDRFSGSGSGTDFTLKISRVEAEDVGVYYCAQGTSVPFTFGQGTKLEIK | 1.8 fold |  |  |  |  |  | 
2 | dBBDu183H Y97W / dBBDu072L (antibody, name in Kabat numbering, V domains shown, as m1, one VH change) VH: QVQLVESGGGLVQPGRSLRLSCAASGFTFSNAWMHWVRQAPGKGLEWVAQIKDKGNAYAAYYAPSVKGRFTISRDDSKNSIYLQMNSLKTEDTAVYYCHYVHWASASTVLPAFGVDAWGQGTTVTVSS VL: DIVMTQSPLSLPVTPGEPASISCQASQELVHMNRNTYLHWYQQKPGQAPRLLIYKVSNRFPGVPDRFSGSGSGTDFTLKISRVEAEDVGVYYCAQGTSVPFTFGQGTKLEIK | 0.8 fold |  |  |  |  |  | 
3 | GPC3 ERY22-B (bispecific antibody, human IgG1, kappa, L234A L235A, N297A) heavy 1: DIVMTQSPLSLPVTPGEPASISCRSSQSLVHSNRNTYLHWYQQKPGQAPRLLIYKVSNRFSGVPDRFSGSGSGTDFTLKISRVEAEDVGVYYCSQNTHVPPTFGQGTKLEIKSSASTKGPSVFPLAPSSKSTSGGTAALGCLVKDYFPEPVTVSWNSGALTSGVHTFPAVLQSSGLYSLSSVVTVPSSSLGTQTYICNVNHKPSNTKVDKKVEPKSCDKTHTCPPCPAPEAAGGPSVFLFPPKPKDTLMISRTPEVTCVVVDVSHEDPEVKFNWYVDGVEVHNAKTKPREEQYASTYRVVSVLTVLHQDWLNGKEYKCKVSNKALPAPIEKTISKAKGQPREPQVCTLPPSRDELTKNQVSLWCLVKGFYPSDIAVEWESNGQPENNYKTTPPVLDSDGSFFLYSKLTVDKSRWQQGNVFSCSVMHEALHNHYTQKSLSLSPHHHHHHHH light 1: QVQLVQSGAEVKKPGASVKVSCKASGYTFTDYEMHWIRQPPGQGLEWIGAIDPKTGDTAYSQKFKGRVTLTADKSTSTAYMELSSLTSEDTAVYYCTRFYSYTYWGQGTLVTVSSASVAAPSVFIFPPSDEQLKSGTASVVCLLNNFYPREAKVQWKVDNALQSGNSQESVTEQDSKDSTYSLSSTLTLSKADYEKHKVYACEVTHQGLSSPVTKSFNRGEC heavy 2: QVQLQQWGAGLLKPSETLSLTCAVYGGSFSGYYWSWIRQSPEKGLEWIGEINHGGYVTYNPSLESRVTISVDTSKNQFSLKLSSVTAADTAVYYCARDYGPGNYDWYFDLWGRGTLVTVSSASTKGPSVFPLAPSSKSTSGGTAALGCLVKDYFPEPVTVSWNSGALTSGVHTFPAVLQSSGLYSLSSVVTVPSSSLGTQTYICNVNHKPSNTKVDKKVEPKSCDKTHTCPPCPAPEAAGGPSVFLFPPKPKDTLMISRTPEVTCVVVDVSHEDPEVKFNWYVDGVEVHNAKTKPREEQYASTYRVVSVLTVLHQDWLNGKEYKCKVSNKALPAPIEKTISKAKGQPREPQVYTLPPSRCELTKNQVSLSCAVKGFYPSDIAVEWESNGQPENNYKTTPPVLDSDGSFFLVSKLTVDKSRWQQGNVFSCSVMHEALHNHYTQKSLSLSP light 2: not shown |  | 100% | 100% | 347% | 380% | 4520 pg/mL | 4340 pg/mL
4 | GPC3 ERY22-dBBDu_183/L063 (bispecific antibody, human IgG1, kappa, L234A L235A, N297A) heavy 1: DIVMTQSPLSLPVTPGEPASISCRSSQSLVHSNRNTYLHWYQQKPGQAPRLLIYKVSNRFSGVPDRFSGSGSGTDFTLKISRVEAEDVGVYYCSQNTHVPPTFGQGTKLEIKSSASTKGPSVFPLAPSSKSTSGGTAALGCLVKDYFPEPVTVSWNSGALTSGVHTFPAVLQSSGLYSLSSVVTVPSSSLGTQTYICNVNHKPSNTKVDKKVEPKSCDKTHTCPPCPAPEAAGGPSVFLFPPKPKDTLMISRTPEVTCVVVDVSHEDPEVKFNWYVDGVEVHNAKTKPREEQYASTYRVVSVLTVLHQDWLNGKEYKCKVSNKALPAPIEKTISKAKGQPREPQVCTLPPSRDELTKNQVSLWCLVKGFYPSDIAVEWESNGQPENNYKTTPPVLDSDGSFFLYSKLTVDKSRWQQGNVFSCSVMHEALHNHYTQKSLSLSPHHHHHHHH light 1: QVQLVQSGAEVKKPGASVKVSCKASGYTFTDYEMHWIRQPPGQGLEWIGAIDPKTGDTAYSQKFKGRVTLTADKSTSTAYMELSSLTSEDTAVYYCTRFYSYTYWGQGTLVTVSSASVAAPSVFIFPPSDEQLKSGTASVVCLLNNFYPREAKVQWKVDNALQSGNSQESVTEQDSKDSTYSLSSTLTLSKADYEKHKVYACEVTHQGLSSPVTKSFNRGEC heavy 2: QVQLVESGGGLVQPGRSLRLSCAASGFTFSNAWMHWVRQAPGKGLEWVAQIKDKGNAYAAYYAPSVKGRFTISRDDSKNSIYLQMNSLKTEDTAVYYCHYVHYASASTVLPAFGVDAWGQGTTVTVSSASTKGPSVFPLAPSSKSTSGGTAALGCLVKDYFPEPVTVSWNSGALTSGVHTFPAVLQSSGLYSLSSVVTVPSSSLGTQTYICNVNHKPSNTKVDKKVEPKSCDKTHTCPPCPAPEAAGGPSVFLFPPKPKDTLMISRTPEVTCVVVDVSHEDPEVKFNWYVDGVEVHNAKTKPREEQYASTYRVVSVLTVLHQDWLNGKEYKCKVSNKALPAPIEKTISKAKGQPREPQVYTLPPSRCELTKNQVSLSCAVKGFYPSDIAVEWESNGQPENNYKTTPPVLDSDGSFFLVSKLTVDKSRWQQGNVFSCSVMHEALHNHYTQKSLSLSPDYKDDDDK light 2: DIVMTQSPLSLPVTPGEPASISCRSSQELVHTNRHTYLHWYQQKPGQAPRLLIYKVSNRFPGVPDRFSGSGSGTDFTLKISRVEAEDVGVYYCAQGTQVPFTFGQGTKLEIKRTVAAPSVFIFPPSDEQLKSGTASVVCLLNNFYPREAKVQWKVDNALQSGNSQESVTEQDSKDSTYSLSSTLTLSKADYEKHKVYACEVTHQGLSSPVTKSFNRGEC |  | -1.27% | 6.51% | -4.41% | 24.7% | 968 pg/mL | 1130 pg/mL
5 | GPC3 ERY22-dBBDu_183/L072 (bispecific antibody, human IgG1, kappa, L234A L235A, N297A) heavy 1: DIVMTQSPLSLPVTPGEPASISCRSSQSLVHSNRNTYLHWYQQKPGQAPRLLIYKVSNRFSGVPDRFSGSGSGTDFTLKISRVEAEDVGVYYCSQNTHVPPTFGQGTKLEIKSSASTKGPSVFPLAPSSKSTSGGTAALGCLVKDYFPEPVTVSWNSGALTSGVHTFPAVLQSSGLYSLSSVVTVPSSSLGTQTYICNVNHKPSNTKVDKKVEPKSCDKTHTCPPCPAPEAAGGPSVFLFPPKPKDTLMISRTPEVTCVVVDVSHEDPEVKFNWYVDGVEVHNAKTKPREEQYASTYRVVSVLTVLHQDWLNGKEYKCKVSNKALPAPIEKTISKAKGQPREPQVCTLPPSRDELTKNQVSLWCLVKGFYPSDIAVEWESNGQPENNYKTTPPVLDSDGSFFLYSKLTVDKSRWQQGNVFSCSVMHEALHNHYTQKSLSLSPHHHHHHHH light 1: QVQLVQSGAEVKKPGASVKVSCKASGYTFTDYEMHWIRQPPGQGLEWIGAIDPKTGDTAYSQKFKGRVTLTADKSTSTAYMELSSLTSEDTAVYYCTRFYSYTYWGQGTLVTVSSASVAAPSVFIFPPSDEQLKSGTASVVCLLNNFYPREAKVQWKVDNALQSGNSQESVTEQDSKDSTYSLSSTLTLSKADYEKHKVYACEVTHQGLSSPVTKSFNRGEC heavy 2: QVQLVESGGGLVQPGRSLRLSCAASGFTFSNAWMHWVRQAPGKGLEWVAQIKDKGNAYAAYYAPSVKGRFTISRDDSKNSIYLQMNSLKTEDTAVYYCHYVHYASASTVLPAFGVDAWGQGTTVTVSSASTKGPSVFPLAPSSKSTSGGTAALGCLVKDYFPEPVTVSWNSGALTSGVHTFPAVLQSSGLYSLSSVVTVPSSSLGTQTYICNVNHKPSNTKVDKKVEPKSCDKTHTCPPCPAPEAAGGPSVFLFPPKPKDTLMISRTPEVTCVVVDVSHEDPEVKFNWYVDGVEVHNAKTKPREEQYASTYRVVSVLTVLHQDWLNGKEYKCKVSNKALPAPIEKTISKAKGQPREPQVYTLPPSRCELTKNQVSLSCAVKGFYPSDIAVEWESNGQPENNYKTTPPVLDSDGSFFLVSKLTVDKSRWQQGNVFSCSVMHEALHNHYTQKSLSLSPDYKDDDDK light 2: DIVMTQSPLSLPVTPGEPASISCQASQELVHMNRNTYLHWYQQKPGQAPRLLIYKVSNRFPGVPDRFSGSGSGTDFTLKISRVEAEDVGVYYCAQGTSVPFTFGQGTKLEIKRTVAAPSVFIFPPSDEQLKSGTASVVCLLNNFYPREAKVQWKVDNALQSGNSQESVTEQDSKDSTYSLSSTLTLSKADYEKHKVYACEVTHQGLSSPVTKSFNRGEC |  | 3.21% | 15.8% | 11.1% | 59.8% | 1130 pg/mL | 1450 pg/mL
